The values that follow are results of earlier work, collected in publication PMC7337045.

For orientation: Kd means the free concentration of one partner at which half of the binding sites on the other are occupied at equilibrium, for simple one-to-one binding.

This data set addresses IRS-1 phosphopeptide (UniProt P35570).

Sequence of IRS-1 phosphopeptide (P35570 whole entry, looked up, tested part not stated): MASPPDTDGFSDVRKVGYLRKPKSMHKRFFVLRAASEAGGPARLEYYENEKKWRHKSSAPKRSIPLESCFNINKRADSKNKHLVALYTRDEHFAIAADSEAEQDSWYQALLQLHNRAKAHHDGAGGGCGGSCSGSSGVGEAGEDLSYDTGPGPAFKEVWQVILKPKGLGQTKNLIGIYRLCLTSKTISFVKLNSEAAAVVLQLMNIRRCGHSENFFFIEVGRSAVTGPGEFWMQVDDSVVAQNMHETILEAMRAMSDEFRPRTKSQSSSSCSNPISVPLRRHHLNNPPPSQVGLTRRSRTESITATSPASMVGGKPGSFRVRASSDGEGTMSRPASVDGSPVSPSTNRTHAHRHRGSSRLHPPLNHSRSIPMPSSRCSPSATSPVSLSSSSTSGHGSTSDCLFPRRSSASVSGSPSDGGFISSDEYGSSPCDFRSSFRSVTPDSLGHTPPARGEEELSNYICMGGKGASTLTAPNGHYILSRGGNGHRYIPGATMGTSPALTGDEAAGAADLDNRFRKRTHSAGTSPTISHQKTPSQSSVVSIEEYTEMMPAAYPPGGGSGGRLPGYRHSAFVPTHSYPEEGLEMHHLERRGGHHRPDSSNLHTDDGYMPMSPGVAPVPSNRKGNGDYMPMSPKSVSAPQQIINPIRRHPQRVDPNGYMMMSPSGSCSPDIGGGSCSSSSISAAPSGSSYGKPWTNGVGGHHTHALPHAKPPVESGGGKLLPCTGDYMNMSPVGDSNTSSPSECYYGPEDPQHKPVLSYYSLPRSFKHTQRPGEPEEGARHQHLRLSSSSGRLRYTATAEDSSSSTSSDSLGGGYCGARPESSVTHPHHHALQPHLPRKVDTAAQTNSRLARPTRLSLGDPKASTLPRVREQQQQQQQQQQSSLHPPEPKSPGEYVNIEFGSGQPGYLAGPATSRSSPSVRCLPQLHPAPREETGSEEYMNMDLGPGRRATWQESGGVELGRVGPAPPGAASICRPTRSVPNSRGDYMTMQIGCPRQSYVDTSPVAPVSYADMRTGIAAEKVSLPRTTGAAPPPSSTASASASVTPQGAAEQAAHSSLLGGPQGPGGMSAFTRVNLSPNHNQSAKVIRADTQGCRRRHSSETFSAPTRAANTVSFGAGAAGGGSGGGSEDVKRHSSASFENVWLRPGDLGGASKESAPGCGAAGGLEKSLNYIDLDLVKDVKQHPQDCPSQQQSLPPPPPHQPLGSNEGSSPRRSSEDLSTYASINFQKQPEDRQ

As for SHP2 N-SH2 (from UniProt Q06124), the Kd was 14 nM.
